{"source": "patent US20250197491A1", "about": "(published 2025)", "binders": {"B1": {"name": "Antibody 2 (antibody, V domains shown)", "VH": "QVQLVESGGDLVKPGGSLRLSCAASGFTFRDYYMSWIRQAPGKGLEWVSYISPSGSTIFYADSVKGRFTISRDNAKNSLYLQMNSLRAEDTAVYYCAKDRVRLFDYWGQGTLVTVSS", "VL": "EIVLTQSPATLSLSPGERATLSCRASQSVSSSYLAWYQQKPGQAPRLLIYGASTRATGIPARFSGSGSGTDFTLTISRLEPEDFAVYYCQQRSNWPITFGQGTRLEIK"}, "B2": {"name": "Antibody 5 (antibody, V domains shown)", "VH": "QVQLVESGGGLVKPGGSLRLSCAASGFTFSDYYMTWIRQAPGKGLEWVSYISISGITRYYADSVKGRFTISRDNAKNSLYLQMNSLRAEDTAVYYCARDQTGYFDYWGQGTLVTVSS", "VL": "DIVMTQSPATLSVSPGEKTTLSCRASQSFSSNLAWYQQKPGQAPRLLIYGASTRATGIPARFSGSGSGTEFTLTISSLQSEDFAVYYCQQYINWPHTFGQGTKVEIK"}, "B3": {"name": "Antibody 1 (antibody, V domains shown)", "VH": "QVQLVESGGGLVKPGGSLRLSCAASGFTFSDYYMSWIRQAPGKGLEWVSYISSSGSIKKYADSVKGRFTISRDNAKNSLYLQMNSLRGEDTAVYYCARTNWHFDYWGQGTLVTVSS", "VL": "EIVLTQSPGTLSLSPGERATLSCRASQSVSSSYLAWYQQKPGQAPRLLIFGASTRATGIPDRFSGSGSGTDFTLTISRLEPEDVAVYYCQQYYSTPFTFGPGTKVDIK"}, "B4": {"name": "Antibody 4 (antibody, V domains shown)", "VH": "QVQLVQSGAEVKKPGASVKVSCKASGYTFTSYGISWVRQAPGQGLEWMGWISAYNGNTNYAQKLQGRVTMTTDTSTSTAYMELRSLRSDDTAVYYCARSYSGSYWWFDPWGQGTLVTVSS", "VL": "not shown"}, "B5": {"name": "Antibody 3 (antibody, V domains shown)", "VH": "B4 VH with Y104H", "VL": "not shown"}}, "note": "Residue numbers refer to the chain shown, from its start."}
{"biological_target": "Human full length LILRB1 (UniProt Q8NHL6 24-650)", "sequence (Q8NHL6 24-650)": "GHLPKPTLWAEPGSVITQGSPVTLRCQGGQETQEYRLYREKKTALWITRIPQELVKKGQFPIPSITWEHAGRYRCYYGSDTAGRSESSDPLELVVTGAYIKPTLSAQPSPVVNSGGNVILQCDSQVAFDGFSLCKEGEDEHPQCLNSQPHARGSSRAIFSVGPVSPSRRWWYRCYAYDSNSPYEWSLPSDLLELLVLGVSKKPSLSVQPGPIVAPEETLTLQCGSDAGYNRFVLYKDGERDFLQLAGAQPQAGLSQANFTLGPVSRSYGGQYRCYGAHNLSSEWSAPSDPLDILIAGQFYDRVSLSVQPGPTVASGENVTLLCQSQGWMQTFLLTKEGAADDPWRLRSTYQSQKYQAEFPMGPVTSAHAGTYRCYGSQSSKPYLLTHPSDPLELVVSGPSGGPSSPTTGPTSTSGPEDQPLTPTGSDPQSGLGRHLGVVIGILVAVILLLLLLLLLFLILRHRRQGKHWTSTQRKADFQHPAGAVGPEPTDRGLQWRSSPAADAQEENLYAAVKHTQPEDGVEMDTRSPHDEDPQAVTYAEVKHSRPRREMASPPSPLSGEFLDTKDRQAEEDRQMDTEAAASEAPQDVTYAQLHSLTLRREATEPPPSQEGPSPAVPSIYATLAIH", "assay": "flow cytometry, HEK293 cells overexpressing LILRB1", "units": {"EC50": "nM"}}
{"binder": "B1", "EC50": 0.52}
{"binder": "B2", "EC50": 2.24}
{"binder": "B3", "EC50": 0.37}
{"binder": "B4", "EC50": 1.21}
{"binder": "B5", "EC50": 1.57}
